Data as given in the Human Domainome abundance scans (Beltran et al. 2025).

B1: Storkhead-box protein 2, residues 64 to 141; numbered along this chain, Q9P2F5 (parent)
chain: SPISQSQFIPLGEILCLAISAMNSARKPVTQEALMEHLTTCFPGVPTPSQEILRHTLNTLVRERKIYPTPDGYFIVTP

Variants of: B1
Assay: abundance fitness (aPCA) (normalised: wild type 0, dead -1); higher = more abundant; growth selection in yeast, the domain comes from the species named
Conditions: Homo sapiens

Abundance fitness, by site and new letter:
G72: C -0.383 | E -0.078 | Y -0.527 | A -0.304 | R -0.32 | L -0.461 | D -0.033 | M -0.209 | V -0.568 | H -0.293 | Q -0.034 | K -0.272 | N -0.16 | P -0.614 | S -0.121 | T -0.132 | I -0.613 | W -0.662
P68: V 0.082 | W -0.057 | T 0.04 | M -0.038 | F -0.014 | N 0.009 | C 0.044 | R 0 | K -0.082 | Y -0.141 | G -0.003 | D -0.042 | A 0.065 | H 0.051 | L 0.017 | I -0.046 | S 0.059
Y73: W -0.041 | V -0.171 | D -0.136 | L -0.029 | P -0.149 | S -0.011 | M -0.108 | N 0.043 | K -0.085 | T -0.174 | Q -0.078 | R -0.055 | I -0.261 | E -0.089
V61: D -0.186 | N -0.432 | A 0.029 | M 0.052 | T 0.019 | E -0.028 | P -1.05 | L -0.05 | C 0.04 | K -0.146 | Y -0.208 | H -0.122 | I -0.014 | S -0.008 | F -0.166 | Q -0.013
I66: H -1 | Y -0.971 | F -0.937 | V -0.041 | R -1.17 | W -0.847 | M -0.249 | G -0.894 | D -1.02 | C 0.016 | Q -1.01 | E -1.08 | L -0.05 | T -0.38 | A -0.173
V76: Q -0.007 | H -0.114 | M 0.035 | F -0.012 | N 0.05 | C 0.03 | D -0.102 | G -0.011 | E 0.037 | I -0.363 | W -0.028 | T -0.03 | P 0.001 | A 0.001 | Y -0.087 | S 0.092 | K 0.032
N58: W -0.093 | V 0.002 | Y -0.203
R64: F -0.286 | G 0.031 | W -0.211 | Y -0.174 | P -1.09 | K 0.061 | D -0.029 | H 0.039 | S -0.021 | M -0.138 | E 0.112 | Q -0.043 | A -0.029 | L -0.124 | V -0.22 | I -0.619 | N -0.043 | C -0.128
E63: S -0.018 | H -0.006 | M -0.051 | I -0.234 | T -0.049 | R -0.015 | V -0.049 | W -0.075 | A -0.019 | Y -0.033 | K 0.011 | P -1.2 | D -0.004 | C -0.043 | N -0.028 | G -0.054
T77: D 0.077 | V -0.065 | F -0.073 | N 0.059 | S 0.024 | I -0.261 | M -0.164 | A -0.019 | C 0.04 | W -0.111 | R 0.09 | P -0.003 | G -0.057 | Y -0.084 | L -0.072 | E 0.034 | H -0.084 | Q -0.099
F74: A 0.095 | L -0.046 | N -0.361 | T -0.031 | G 0.052 | D -0.038 | V -0.003 | Q 0.006 | K 0.024 | E -0.004 | P -0.445 | M 0.073 | H -0.248 | C -0.042 | S 0.077 | Y -0.065 | W -0.002 | I -0.001
T59: Q -0.031 | C 0.122 | E 0.049 | R -0.001 | W 0.062 | N -0.087 | G 0.015 | A 0.017 | S 0.104 | L 0.067 | F 0.018 | H 0.049 | V 0.035 | P -0.921 | K -0.047 | I 0.029 | M -0.023 | D -0.016
L60: A -0.213 | E -0.835 | S -0.828 | W -0.525 | R -1.07 | H -0.719 | V -0.587 | F -0.401 | N -0.927 | M -0.126 | Y -0.666 | Q -0.342 | G -0.706 | T -0.87 | P -1.07 | C -0.107 | I -0.384
D71: T 0.004 | V -0.022 | F -0.099 | R -0.088 | I -0.313 | K 0.073 | S -0.05 | H 0.031 | W -0.189 | A -0.002 | N -0.012 | Q -0.054 | C -0.154 | E -0.005 | P -0.223 | Y -0.243 | M -0.054 | G 0.018
P70: H -0.143 | C -0.051 | T 0.037 | K 0.041 | N 0.036 | E -0.004 | A 0.023 | G -0.027 | I 0.021 | R 0.05 | W -0.141 | S 0.016 | D 0.091 | V 0.011 | F -0.081 | M -0.097 | Y -0.061 | Q 0.034
P78: K -0.086 | F -0.37 | S -0.038 | T -0.191 | A -0.05 | N -0.219 | C 0.072 | H -0.191 | E -0.44 | R 0.049 | M -0.289 | G -0.239
R62: H -0.051 | M 0.045 | G -0.008 | Y 0.076 | C -0.047 | A 0.049 | D -0.05 | I 0.006 | L -0.037 | W -0.081 | K -0.109 | P -0.944 | E 0.017 | T 0.053
I75: V 0.024 | G -0.033 | M 0.1 | N -0.177 | A -0.04 | K -0.219 | Q -0.026 | F -0.109 | L -0.017 | S 0.038 | H -0.172 | P -0.039 | Y -0.013 | C 0.017 | W -0.057
K65: W -0.209 | F -0.084 | N -0.493 | M -0.171 | Q 0.078 | P -0.967 | A -0.134 | H 0.013 | I -0.21 | T -0.03 | L -0.06 | C -0.208 | D -0.443 | Y -0.154 | E -0.167 | S -0.082 | G -0.541 | V 0 | R -0.031
T69: L -0.195 | D -0.04 | I -0.298 | H -0.071 | N -0.042 | E -0.095 | W -0.362 | M -0.148 | R -0.015 | G -0.003 | A -0.028 | V -0.13 | Y -0.358 | K -0.249 | P -0.703 | Q -0.036
Y67: V -0.02 | K 0.083 | L -0.029 | I 0.02 | S 0.001 | T -0.05 | N -0.06 | C 0.039 | H -0.006 | G -0.053 | Q -0.017 | F -0.021 | R 0.022 | P -0.566 | W -0.049 | M 0.102 | A 0.03
